Patent US20220033493A1

What was measured:
[1] = molecular target: CaVβ2b with N-terminal deca-histidine tag (purified from E. coli); test: isothermal titration calorimetry, purified proteins, 25 °C
[2] = molecular target: CaVβ2b with N-terminal deca-histidine tag (purified from E. coli); test: isothermal titration calorimetry, nb.F3 injected into CaVβ2b, T=298K
[3] = molecular target: CaVβ2b with N-terminal deca-histidine tag (purified from E. coli); test: isothermal titration calorimetry, purified proteins, 25 °C, nb.F3 injected into CaVβ2b

stoichiometry [1]: 1
Ka [2]: 1.07e+08 M⁻¹
N (stoichiometry) [2]: 0.93
ΔH [2]: -14.9 kcal/mol
ΔS (cal mol-1 K-1) [2]: -13.8
Kd [3]: 13.2 nM
B1: nb.F3 with N-terminal deca-histidine tag (purified from E. coli) (VHH)
VHH: QVQLQESGGGLVQAGGSLRLSCVASGRTFSSYAMGWFRQAPGKEREFVAAIDWSGGTASHADSVKGRFTISRDNAKNTVYLQMNSLKPEDTAVYYCAASSYWSRSVDEYDYWGQGTQVTVSS
